Experimental data from article PMC2064109 (The Journal of Cell Biology, 2007).

Molecular target: T1, His-tagged bacterially expressed MBP-POSH fusion protein (human, UniProt Q7Z6J0 1-888)
T1 sequence (looked up): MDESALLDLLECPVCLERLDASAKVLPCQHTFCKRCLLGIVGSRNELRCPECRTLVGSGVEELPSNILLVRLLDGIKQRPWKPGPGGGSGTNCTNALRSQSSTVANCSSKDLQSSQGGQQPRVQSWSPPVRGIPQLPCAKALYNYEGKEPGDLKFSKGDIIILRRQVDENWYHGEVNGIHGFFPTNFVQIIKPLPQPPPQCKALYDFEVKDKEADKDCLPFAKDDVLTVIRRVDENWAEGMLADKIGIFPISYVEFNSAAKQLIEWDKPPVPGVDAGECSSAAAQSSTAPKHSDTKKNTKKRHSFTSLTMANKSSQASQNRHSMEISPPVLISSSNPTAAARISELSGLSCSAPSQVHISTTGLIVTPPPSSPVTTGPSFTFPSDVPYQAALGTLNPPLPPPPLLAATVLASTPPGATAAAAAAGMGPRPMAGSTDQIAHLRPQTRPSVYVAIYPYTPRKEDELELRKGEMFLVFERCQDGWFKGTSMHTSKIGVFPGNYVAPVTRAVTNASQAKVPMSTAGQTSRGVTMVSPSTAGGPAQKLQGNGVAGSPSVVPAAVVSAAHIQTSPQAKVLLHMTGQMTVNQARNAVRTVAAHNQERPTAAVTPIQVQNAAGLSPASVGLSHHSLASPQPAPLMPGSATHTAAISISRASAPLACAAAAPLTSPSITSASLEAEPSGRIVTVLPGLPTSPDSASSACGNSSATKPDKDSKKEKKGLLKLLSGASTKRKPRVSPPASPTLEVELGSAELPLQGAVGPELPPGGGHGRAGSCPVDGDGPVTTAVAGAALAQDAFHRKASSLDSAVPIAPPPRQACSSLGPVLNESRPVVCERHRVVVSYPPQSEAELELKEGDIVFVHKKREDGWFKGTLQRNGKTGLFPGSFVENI
Assay: co-IP

B1: truncated Herp (tHerp; amino acids 1-272) with FLAG tag (domain or fragment, UniProt Q15011 1-272, looked up)
chain: MESETEPEPVTLLVKSPNQRHRDLELSGDRGWSVGHLKAHLSRVYPERPRPEDQRLIYSGKLLLDHQCLRDLLPKQEKRHVLHLVCNVKSPSKMPEINAKVAESTEEPAGSNRGQYPEDSSSDGLRQREVLRNLSSPGWENISRPEAAQQAFQGLGPGFSGYTPYGWLQLSWFQQIYARQYYMQYLAATAASGAFVPPPSAQEIPVVSAPAPAPIHNQFPAENQPANQNAAPQVVVNPGANQNLRMNAQGGPIVEEDDEINRDWLDWTYSAA
- binding result: binds
